According to patent US20210030857A1 (NGM BIOPHARMACEUTICALS, published 2021):

T1: mouse beta klotho expressed on cells (mouse (Mus musculus), UniProt Q99N32 1-1043)
T1 construct: also called Mouse KLB
T1 sequence: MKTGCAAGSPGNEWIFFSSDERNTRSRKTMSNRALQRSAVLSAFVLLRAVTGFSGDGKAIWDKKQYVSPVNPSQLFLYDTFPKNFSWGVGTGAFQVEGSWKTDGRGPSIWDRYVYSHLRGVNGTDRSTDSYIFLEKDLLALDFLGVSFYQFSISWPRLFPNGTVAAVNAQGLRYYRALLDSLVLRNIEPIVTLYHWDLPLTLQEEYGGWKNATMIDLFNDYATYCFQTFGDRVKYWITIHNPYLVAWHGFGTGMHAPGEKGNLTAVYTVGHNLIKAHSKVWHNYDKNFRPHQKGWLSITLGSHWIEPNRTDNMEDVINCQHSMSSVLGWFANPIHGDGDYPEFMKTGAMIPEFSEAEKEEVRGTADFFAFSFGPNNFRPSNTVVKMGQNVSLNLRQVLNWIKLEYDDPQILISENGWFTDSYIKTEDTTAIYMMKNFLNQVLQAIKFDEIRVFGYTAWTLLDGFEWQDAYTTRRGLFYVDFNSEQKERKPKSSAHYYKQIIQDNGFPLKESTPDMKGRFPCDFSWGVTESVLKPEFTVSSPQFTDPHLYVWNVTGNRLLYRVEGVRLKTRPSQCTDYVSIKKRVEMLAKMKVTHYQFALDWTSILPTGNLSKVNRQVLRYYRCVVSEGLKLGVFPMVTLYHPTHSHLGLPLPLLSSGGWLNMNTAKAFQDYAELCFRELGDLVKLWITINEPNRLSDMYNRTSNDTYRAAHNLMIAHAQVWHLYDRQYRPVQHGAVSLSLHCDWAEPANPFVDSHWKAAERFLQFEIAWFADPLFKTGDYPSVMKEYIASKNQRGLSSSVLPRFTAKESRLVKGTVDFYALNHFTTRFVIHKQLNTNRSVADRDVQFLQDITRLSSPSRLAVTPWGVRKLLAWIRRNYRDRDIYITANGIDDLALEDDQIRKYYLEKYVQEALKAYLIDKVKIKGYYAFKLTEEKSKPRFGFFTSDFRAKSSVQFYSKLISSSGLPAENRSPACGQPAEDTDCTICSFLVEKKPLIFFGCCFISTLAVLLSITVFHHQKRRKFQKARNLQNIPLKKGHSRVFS

B1: negative control antibody, anti-keyhole limpet hemocyanin (KLH) antibody (antibody, human IgG1, kappa, V domains shown)
VH: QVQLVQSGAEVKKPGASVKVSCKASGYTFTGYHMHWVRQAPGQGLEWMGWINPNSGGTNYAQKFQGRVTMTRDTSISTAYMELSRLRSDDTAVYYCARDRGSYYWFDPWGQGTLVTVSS
VL: DIQMTQSPSSLSASVGDRVTITCRASQGIRNDLGWYQQKPGKAPKRLIYAASSLQSGVPSRFSGSGSGTEFTLTISSLQPEDFATYYCLQHNSYPLTFGGGTKVEIKR
notes: also called Neg; Control; anti-KLH antibody
B2: humanized 5H23 antibody (VH SEQ ID NO: 271 and VL SEQ ID NO: 276) (antibody, V domains shown)
VH: QVQLQQSGAEVKKPGASVKVSCKASGYTFTSYDINWVRQAPGQGLEWIGWIYPGDGSTKYNEKFKGKATITRDTSASTAYMELSSLRSEDTAVYFCARSDYYGSRSFAYWGQGTLVTVSS
VL: DIVMTQSPDSLAVSLGERATINCRASKSVSTSGYVYMHWYQQKPGQPPKLLIYLASYLESGVPDRFSGSGSGTDFTLTISSVQAEDVAVYYCQHSRDLTFPFGGGTKLEIK
notes: also called h5H23; h5H23 (Prep 1)

Key:
[1] = target: T1, mouse beta klotho expressed on cells; assay: FACS on transfected Expi293 cells, antibody 1 µg/ml, labelled anti-human Fc
Description: (§1) Studies were performed in order to localize the binding site on human KLB of anti-beta klotho antibodies in the 5H23 epitope bin, including 5H23 as described in Example 3, with sequences shown in Tables 1-10 and FIGS. 1-3, and human anti-beta klotho antibodies in the 5H23 epitope bin, such as humanized 5H23 antibodies (e.g., VH SEQ ID NO: 271 and VL SEQ ID NO: 276). For example, FACS-based binding assays for domain mapping were performed on Expi293 cells (Life Technologies, A14635) that were transiently transfected with plasmids encoding variants of KLB: human, mouse, cynomolgus, a chimeric version in which the KL1 domain sequence of mouse KLB (M1-F506) replaces the KL1 domain of human KLB (M1-F508) to create mouse-human KLB (SEQ ID NO: 376), and a second chimera in which the human KL1 sequence (M1-F508) replaces the KL1 domain of mouse KLB (M1-F506) to create human-mouse KLB (SEQ ID NO: 374). Additionally, the expression vector pYD7 harboring no KLB sequence was transfected as a negative control.
(§2) In some studies, binding of a purified sample of a humanized 5H23 antibody (e.g., VH SEQ ID NO: 271 and VL SEQ ID NO: 276) to KLB variants was determined by FACS analysis. […] After washing with PBS/1% BSA/0.1% azide, transfected cells were then co-incubated with labeled anti-human Fc (Jackson lmmunoresearch) for 30 minutes at 4° C. After washing with PBS/1% BSA/0.1% azide, cells were acquired on flow cytometer (FACS Calibur) and analyzed by cytometric software (FlowJo). To display the resulting data, graphs plotting the number of cells as a function of fluorescence intensity were generated, and the median fluorescence intensity (MFI) was determined for each sample as shown in Table 30.

[2] = target: T2, mouse-human KLB chimeric protein (mouse KLB (M1-F506)-human KLB (S509-S1044)) on cells (mouse/human chimera, UniProt Q86Z14 1-1044 (human entry)); assay: as above
T2 construct: also called Mouse-Human chimeric KLB; chMoHu
Description: as §1, §2

Binder	Mean Fluorescence intensity [1]	Mean Fluorescence intensity [2]
B1	9.59 MFI	5.44 MFI
B2	14.2 MFI	26.1 MFI
